Reference: patent US20160115500A1 (University of California, published 2016)
Where a chain is given by its changes, count along the chain named. Names and notes keep the numbering of the source. Values belong to the binder of their own block, whether it stands above or below them.

Key:
[1] = target: T1, GAL4 activation domain fusion (ACT) to HAB1 (UniProt Q9CAJ0 23-511, limits assumed); experiment: yeast two-hybrid, X-gal; lowest mandipropamid concentration giving signal
T1 construct: pACT-HAB1 fusion in yeast reporter strains; also called pACT-HAB1
T1 sequence (looked up): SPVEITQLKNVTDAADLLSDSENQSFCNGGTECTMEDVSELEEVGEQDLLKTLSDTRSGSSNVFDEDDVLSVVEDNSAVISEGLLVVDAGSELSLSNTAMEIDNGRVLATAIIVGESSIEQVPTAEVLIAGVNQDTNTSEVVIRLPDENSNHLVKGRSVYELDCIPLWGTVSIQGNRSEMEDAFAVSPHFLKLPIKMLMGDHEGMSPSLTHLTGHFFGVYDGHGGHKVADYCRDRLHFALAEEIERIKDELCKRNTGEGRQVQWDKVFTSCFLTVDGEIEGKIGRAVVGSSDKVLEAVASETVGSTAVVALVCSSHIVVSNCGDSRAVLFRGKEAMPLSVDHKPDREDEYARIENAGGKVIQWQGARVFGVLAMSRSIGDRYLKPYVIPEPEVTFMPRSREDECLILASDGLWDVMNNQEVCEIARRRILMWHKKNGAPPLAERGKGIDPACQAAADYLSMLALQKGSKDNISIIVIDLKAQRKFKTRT

[2] = target: T1, GAL4 activation domain fusion (ACT) to …; experiment: yeast two-hybrid, X-gal; lowest dichlobenil concentration giving signal

B1: PYR1^K59R,F108A (receptor, not shown: small tags and cut ends)
chain: MPSELTPEERSELKNSIAEFHTYQLDPGSCSSLHAQRIHAPPELVWSIVRRFDKPQTYRHFIKSCSVEQNFEMRVGCTRDVIVISGLPANTSTERLDILDDERRVTGASIIGGEHRLTNYKSVTTVHRFEKENRIWTVVLESYVVDMPEGNSEDDTRMFADTVVKLNLQKLATVAEAMARNSGDGSGSQVT
notes: pBD-PYR1 fusion in yeast
Threshold [1]: 100 µM

B2: PYR1^K59R,A160V (receptor, not shown: small tags and cut ends)
chain: B1 chain with A108F, A160V
notes: pBD-PYR1 fusion in yeast
Threshold [2]: 100 µM

B3: PYR1^K59R,F108I,S122G (receptor, not shown: small tags and cut ends)
chain: B1 chain with A108I, S122G
notes: pBD-PYR1 fusion in yeast
Threshold [1]: 10 µM

B5: PYR1^K59R,E141F (receptor)
chain: B1 chain with A108F, E141F
notes: pBD-PYR1 fusion in yeast
Threshold [2]: 100 µM

B7: PYR1^K59R,E141L (receptor, not shown: small tags and cut ends)
chain: B1 chain with A108F, E141L
notes: pBD-PYR1 fusion in yeast
Threshold [2]: 100 µM

B9: PYR1^K59R,N167T (receptor, not shown: small tags and cut ends)
chain: B1 chain with A108F, N167T
notes: pBD-PYR1 fusion in yeast
Threshold [2]: 100 µM

B10: PYR1^K59R,M158A (receptor, not shown: small tags and cut ends)
chain: B1 chain with A108F, M158A
notes: pBD-PYR1 fusion in yeast
Threshold [2]: 100 µM

B12: PYR1^K59R,F108A,S122G,L87A (receptor)
chain: B1 chain with L87A, S122G
notes: pBD-PYR1 fusion in yeast
Threshold [1]: 0.25 µM

B14: PYR1^K59R,F108C (receptor, not shown: small tags and cut ends)
chain: B1 chain with A108C
notes: pBD-PYR1 fusion in yeast
Threshold [1]: 100 µM

B17: PYR1^K59R,F108I (receptor, not shown: small tags and cut ends)
chain: B1 chain with A108I
notes: pBD-PYR1 fusion in yeast
Threshold [1]: 100 µM

B18: PYR1^K59R,T162L (receptor, not shown: small tags and cut ends)
chain: B1 chain with A108F, T162L
notes: pBD-PYR1 fusion in yeast
Threshold [2]: 100 µM

B19: PYR1^K59R,F108G (receptor, not shown: small tags and cut ends)
chain: B1 chain with A108G
notes: pBD-PYR1 fusion in yeast
Threshold [1]: 100 µM

B20: PYR1^K59R,N167S (receptor, not shown: small tags and cut ends)
chain: B1 chain with A108F, N167S
notes: pBD-PYR1 fusion in yeast
Threshold [2]: 100 µM

B21: PYR1^K59R,F108A,S122G,F159V (receptor)
chain: B1 chain with S122G, F159V
notes: pBD-PYR1 fusion in yeast
Threshold [1]: 0.25 µM

B22: PYR1^K59R,N167Q (receptor, not shown: small tags and cut ends)
chain: B1 chain with A108F, N167Q
notes: pBD-PYR1 fusion in yeast
Threshold [2]: 100 µM

B24: PYR1^K59R,A160Y (receptor, not shown: small tags and cut ends)
chain: B1 chain with A108F, A160Y
notes: pBD-PYR1 fusion in yeast
Threshold [2]: 100 µM

B26: PYR1^K59R,A160N (receptor, not shown: small tags and cut ends)
chain: B1 chain with A108F, A160N
notes: pBD-PYR1 fusion in yeast
Threshold [2]: 100 µM

B28: PYR1^K59R,V164C (receptor, not shown: small tags and cut ends)
chain: B1 chain with A108F, V164C
notes: pBD-PYR1 fusion in yeast
Threshold [2]: 100 µM

B29: PYR1^K59R,F108A,S122G,V164I (receptor)
chain: B1 chain with S122G, V164I
notes: pBD-PYR1 fusion in yeast
Threshold [1]: 0.25 µM

B31: PYR1^K59R,F108Q,S122G (receptor, not shown: small tags and cut ends)
chain: B1 chain with A108Q, S122G
notes: pBD-PYR1 fusion in yeast
Threshold [1]: 10 µM

B33: PYR1^K59R,M158G (receptor, not shown: small tags and cut ends)
chain: B1 chain with A108F, M158G
notes: pBD-PYR1 fusion in yeast
Threshold [2]: 100 µM

B35: PYR1^K59R,F108A,S122G (receptor, not shown: small tags and cut ends)
chain: B1 chain with S122G
notes: pBD-PYR1 fusion in yeast; also called pBD-PYR1^K59R,F108A,S122G
Threshold [1]: 1 µM

B36: PYR1^K59R,V164Q (receptor, not shown: small tags and cut ends)
chain: B1 chain with A108F, V164Q
notes: pBD-PYR1 fusion in yeast
Threshold [2]: 100 µM

B37: PYR1^K59R,V164S (receptor, not shown: small tags and cut ends)
chain: B1 chain with A108F, V164S
notes: pBD-PYR1 fusion in yeast
Threshold [2]: 100 µM

B38: PYR1^K59R,V164H (receptor, not shown: small tags and cut ends)
chain: B1 chain with A108F, V164H
notes: pBD-PYR1 fusion in yeast
Threshold [2]: 100 µM

B39: PYR1^K59R,F108N (receptor, not shown: small tags and cut ends)
chain: B1 chain with A108N
notes: pBD-PYR1 fusion in yeast
Threshold [1]: 100 µM

B41: PYR1^K59R,F108A,S122G,V81C (receptor, not shown: small tags and cut ends)
chain: B1 chain with V81C, S122G
notes: pBD-PYR1 fusion in yeast
Threshold [1]: 0.25 µM

B42: PYR1^K59R,V164M (receptor, not shown: small tags and cut ends)
chain: B1 chain with A108F, V164M
notes: pBD-PYR1 fusion in yeast
Threshold [2]: 100 µM

B44: PYR1^K59R,A160S (receptor, not shown: small tags and cut ends)
chain: B1 chain with A108F, A160S
notes: pBD-PYR1 fusion in yeast
Threshold [2]: 100 µM

B47: PYR1^K59R,A160I (receptor, not shown: small tags and cut ends)
chain: B1 chain with A108F, A160I
notes: pBD-PYR1 fusion in yeast
Threshold [2]: 100 µM

B48: PYR1^K59R,M158S (receptor, not shown: small tags and cut ends)
chain: B1 chain with A108F, M158S
notes: pBD-PYR1 fusion in yeast
Threshold [2]: 100 µM

B49: PYR1^K59R,F108A,S122G,V81T (receptor, not shown: small tags and cut ends)
chain: B1 chain with V81T, S122G
notes: pBD-PYR1 fusion in yeast
Threshold [1]: 0.25 µM

B50: PYR1^K59R,V164T (receptor, not shown: small tags and cut ends)
chain: B1 chain with A108F, V164T
notes: pBD-PYR1 fusion in yeast
Threshold [2]: 100 µM

B51: PYR1^K59R,N167D (receptor, not shown: small tags and cut ends)
chain: B1 chain with A108F, N167D
notes: pBD-PYR1 fusion in yeast
Threshold [2]: 100 µM

B53: PYR1^K59R,V164G (receptor, not shown: small tags and cut ends)
chain: B1 chain with A108F, V164G
notes: pBD-PYR1 fusion in yeast
Threshold [2]: 100 µM

B55: PYR1^K59R,E141H (receptor, not shown: small tags and cut ends)
chain: B1 chain with A108F, E141H
notes: pBD-PYR1 fusion in yeast
Threshold [2]: 100 µM

Continued, values first:

Threshold [2]: 100 µM
B4: PYR1^K59R,M158L (receptor, not shown: small tags and cut ends)
chain: B1 chain with A108F, M158L
notes: pBD-PYR1 fusion in yeast

Threshold [2]: 100 µM
B6: PYR1^K59R,A160T (receptor, not shown: small tags and cut ends)
chain: B1 chain with A108F, A160T
notes: pBD-PYR1 fusion in yeast

Threshold [1]: 0.25 µM
B8: PYR1^K59R,F108A,S122G,V81I (receptor, not shown: small tags and cut ends)
chain: B1 chain with V81I, S122G
notes: pBD-PYR1 fusion in yeast

Threshold [1]: 0.25 µM
B11: PYR1^K59R,F108A,S122G,F159M (receptor)
chain: B1 chain with S122G, F159M
notes: pBD-PYR1 fusion in yeast

Threshold [2]: 100 µM
B13: PYR1^K59R,V164A (receptor, not shown: small tags and cut ends)
chain: B1 chain with A108F, V164A
notes: pBD-PYR1 fusion in yeast

Threshold [2]: 100 µM
B15: PYR1^K59R,V164F (receptor, not shown: small tags and cut ends)
chain: B1 chain with A108F, V164F
notes: pBD-PYR1 fusion in yeast

Threshold [2]: 100 µM
B16: PYR1^K59R,V164E (receptor, not shown: small tags and cut ends)
chain: B1 chain with A108F, V164E
notes: pBD-PYR1 fusion in yeast

Threshold [2]: 100 µM
B23: PYR1^K59R,V164L (receptor, not shown: small tags and cut ends)
chain: B1 chain with A108F, V164L
notes: pBD-PYR1 fusion in yeast

Threshold [1]: 100 µM
B25: PYR1^K59R,F108Q (receptor, not shown: small tags and cut ends)
chain: B1 chain with A108Q
notes: pBD-PYR1 fusion in yeast

Threshold [2]: 100 µM
B27: PYR1^K59R,H115N (receptor)
chain: B1 chain with A108F, H115N
notes: pBD-PYR1 fusion in yeast

Threshold [1]: 0.05 µM
B30: PYR1^K59R,F108A,S122G,V83L (receptor)
chain: B1 chain with V83L, S122G
notes: pBD-PYR1 fusion in yeast

Threshold [2]: 100 µM
B32: PYR1^K59R,V164N (receptor, not shown: small tags and cut ends)
chain: B1 chain with A108F, V164N
notes: pBD-PYR1 fusion in yeast

Threshold [2]: 100 µM
B34: PYR1^K59R,I110M (receptor, not shown: small tags and cut ends)
chain: B1 chain with A108F, I110M
notes: pBD-PYR1 fusion in yeast

Threshold [1]: 0.05 µM
B40: PYR1^K59R,F108A,S122G,F159L (receptor)
chain: B1 chain with S122G, F159L
notes: pBD-PYR1 fusion in yeast

Threshold [2]: 100 µM
B43: PYR1^K59R,N167A (receptor, not shown: small tags and cut ends)
chain: B1 chain with A108F, N167A
notes: pBD-PYR1 fusion in yeast

Threshold [2]: 100 µM
B45: PYR1^K59R,N167G (receptor, not shown: small tags and cut ends)
chain: B1 chain with A108F, N167G
notes: pBD-PYR1 fusion in yeast

Threshold [1]: 0.25 µM
B46: PYR1^K59R,F108A,S122G,A160V (receptor)
chain: B1 chain with S122G, A160V
notes: pBD-PYR1 fusion in yeast

Threshold [1]: 100 µM
B52: PYR1^K59R,F108S (receptor)
chain: B1 chain with A108S
notes: pBD-PYR1 fusion in yeast

Threshold [1]: 100 µM
B54: PYR1^K59R,F108T (receptor, not shown: small tags and cut ends)
chain: B1 chain with A108T
notes: pBD-PYR1 fusion in yeast

Threshold [2]: 100 µM
B56: PYR1^K59R,E141Q (receptor, not shown: small tags and cut ends)
chain: B1 chain with A108F, E141Q
notes: pBD-PYR1 fusion in yeast
